Source: patent publication US20200087373A1 (UNIVERSITY OF COPENHAGEN, published 2020)
Ends that are not written are not given here. * marks the point of attachment. C16 diacid = O=C(O)CCCCCCCCCCCCCCC(=O)*

T1: human GIP receptor (human, UniProt P48546 22-466)
T1 sequence (looked up): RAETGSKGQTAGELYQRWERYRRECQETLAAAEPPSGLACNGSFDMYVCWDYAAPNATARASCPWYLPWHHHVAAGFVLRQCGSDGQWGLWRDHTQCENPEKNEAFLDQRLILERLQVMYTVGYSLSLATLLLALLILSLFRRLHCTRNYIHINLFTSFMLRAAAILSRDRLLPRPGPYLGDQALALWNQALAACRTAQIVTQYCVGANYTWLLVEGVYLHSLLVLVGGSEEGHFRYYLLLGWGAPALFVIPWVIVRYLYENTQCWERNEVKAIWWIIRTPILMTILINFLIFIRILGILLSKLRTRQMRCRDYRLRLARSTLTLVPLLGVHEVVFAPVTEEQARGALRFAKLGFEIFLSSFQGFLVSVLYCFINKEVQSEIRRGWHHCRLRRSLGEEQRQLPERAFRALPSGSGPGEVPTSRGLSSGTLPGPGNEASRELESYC

B1: AT301 [hGIP(3-30)NH2[Y10K]-C16diacid/10] (peptide)
peptide: EGTFISDK(C16 diacid)SIAMDKIHQQDFVNWLLAQK-NH2
modifications: N-terminus assumed
SMILES: CC[C@H](C)[C@H](NC(=O)[C@H](CO)NC(=O)[C@H](CCCCNC(=O)CCCCCCCCCCCCCCC(=O)O)NC(=O)[C@H](CC(=O)O)NC(=O)[C@H](CO)NC(=O)[C@@H](NC(=O)[C@H](Cc1ccccc1)NC(=O)[C@@H](NC(=O)CNC(=O)[C@@H](N)CCC(=O)O)[C@@H](C)O)[C@@H](C)CC)C(=O)N[C@@H](C)C(=O)N[C@@H](CCSC)C(=O)N[C@@H](CC(=O)O)C(=O)N[C@@H](CCCCN)C(=O)N[C@H](C(=O)N[C@@H](Cc1c[nH]cn1)C(=O)N[C@@H](CCC(N)=O)C(=O)N[C@@H](CCC(N)=O)C(=O)N[C@@H](CC(=O)O)C(=O)N[C@@H](Cc1ccccc1)C(=O)N[C@H](C(=O)N[C@@H](CC(N)=O)C(=O)N[C@@H](Cc1c[nH]c2ccccc12)C(=O)N[C@@H](CC(C)C)C(=O)N[C@@H](CC(C)C)C(=O)N[C@@H](C)C(=O)N[C@@H](CCC(N)=O)C(=O)N[C@@H](CCCCN)C(N)=O)C(C)C)[C@@H](C)CC
B2: AT298 [hGIP(3-30)NH2[I7K]-C16diacid/7] (peptide)
peptide: EGTFK(C16 diacid)SDYSIAMDKIHQQDFVNWLLAQK-NH2
modifications: N-terminus assumed
SMILES: CC[C@H](C)[C@H](NC(=O)[C@H](CO)NC(=O)[C@H](Cc1ccc(O)cc1)NC(=O)[C@H](CC(=O)O)NC(=O)[C@H](CO)NC(=O)[C@H](CCCCNC(=O)CCCCCCCCCCCCCCC(=O)O)NC(=O)[C@H](Cc1ccccc1)NC(=O)[C@@H](NC(=O)CNC(=O)[C@@H](N)CCC(=O)O)[C@@H](C)O)C(=O)N[C@@H](C)C(=O)N[C@@H](CCSC)C(=O)N[C@@H](CC(=O)O)C(=O)N[C@@H](CCCCN)C(=O)N[C@H](C(=O)N[C@@H](Cc1c[nH]cn1)C(=O)N[C@@H](CCC(N)=O)C(=O)N[C@@H](CCC(N)=O)C(=O)N[C@@H](CC(=O)O)C(=O)N[C@@H](Cc1ccccc1)C(=O)N[C@H](C(=O)N[C@@H](CC(N)=O)C(=O)N[C@@H](Cc1c[nH]c2ccccc12)C(=O)N[C@@H](CC(C)C)C(=O)N[C@@H](CC(C)C)C(=O)N[C@@H](C)C(=O)N[C@@H](CCC(N)=O)C(=O)N[C@@H](CCCCN)C(N)=O)C(C)C)[C@@H](C)CC
B3: AT304 [hGIP(3-30)NH2[A13K]-C16diacid/13] (peptide)
peptide: EGTFISDYSIK(C16 diacid)MDKIHQQDFVNWLLAQK-NH2
modifications: N-terminus assumed
SMILES: CC[C@H](C)[C@H](NC(=O)[C@H](CCCCN)NC(=O)[C@H](CC(=O)O)NC(=O)[C@H](CCSC)NC(=O)[C@H](CCCCNC(=O)CCCCCCCCCCCCCCC(=O)O)NC(=O)[C@@H](NC(=O)[C@H](CO)NC(=O)[C@H](Cc1ccc(O)cc1)NC(=O)[C@H](CC(=O)O)NC(=O)[C@H](CO)NC(=O)[C@@H](NC(=O)[C@H](Cc1ccccc1)NC(=O)[C@@H](NC(=O)CNC(=O)[C@@H](N)CCC(=O)O)[C@@H](C)O)[C@@H](C)CC)[C@@H](C)CC)C(=O)N[C@@H](Cc1c[nH]cn1)C(=O)N[C@@H](CCC(N)=O)C(=O)N[C@@H](CCC(N)=O)C(=O)N[C@@H](CC(=O)O)C(=O)N[C@@H](Cc1ccccc1)C(=O)N[C@H](C(=O)N[C@@H](CC(N)=O)C(=O)N[C@@H](Cc1c[nH]c2ccccc12)C(=O)N[C@@H](CC(C)C)C(=O)N[C@@H](CC(C)C)C(=O)N[C@@H](C)C(=O)N[C@@H](CCC(N)=O)C(=O)N[C@@H](CCCCN)C(N)=O)C(C)C
B4: AT303 [hGIP(3-30)NH2[I12K]-C16diacid/12] (peptide)
peptide: EGTFISDYSK(C16 diacid)AMDKIHQQDFVNWLLAQK-NH2
modifications: N-terminus assumed
SMILES: CC[C@H](C)[C@H](NC(=O)[C@H](CCCCN)NC(=O)[C@H](CC(=O)O)NC(=O)[C@H](CCSC)NC(=O)[C@H](C)NC(=O)[C@H](CCCCNC(=O)CCCCCCCCCCCCCCC(=O)O)NC(=O)[C@H](CO)NC(=O)[C@H](Cc1ccc(O)cc1)NC(=O)[C@H](CC(=O)O)NC(=O)[C@H](CO)NC(=O)[C@@H](NC(=O)[C@H](Cc1ccccc1)NC(=O)[C@@H](NC(=O)CNC(=O)[C@@H](N)CCC(=O)O)[C@@H](C)O)[C@@H](C)CC)C(=O)N[C@@H](Cc1c[nH]cn1)C(=O)N[C@@H](CCC(N)=O)C(=O)N[C@@H](CCC(N)=O)C(=O)N[C@@H](CC(=O)O)C(=O)N[C@@H](Cc1ccccc1)C(=O)N[C@H](C(=O)N[C@@H](CC(N)=O)C(=O)N[C@@H](Cc1c[nH]c2ccccc12)C(=O)N[C@@H](CC(C)C)C(=O)N[C@@H](CC(C)C)C(=O)N[C@@H](C)C(=O)N[C@@H](CCC(N)=O)C(=O)N[C@@H](CCCCN)C(N)=O)C(C)C
B5: AT299 [hGIP(3-30)NH2[S8K]-C16diacid/8] (peptide)
peptide: EGTFIK(C16 diacid)DYSIAMDKIHQQDFVNWLLAQK-NH2
modifications: N-terminus assumed
SMILES: CC[C@H](C)[C@H](NC(=O)[C@H](CO)NC(=O)[C@H](Cc1ccc(O)cc1)NC(=O)[C@H](CC(=O)O)NC(=O)[C@H](CCCCNC(=O)CCCCCCCCCCCCCCC(=O)O)NC(=O)[C@@H](NC(=O)[C@H](Cc1ccccc1)NC(=O)[C@@H](NC(=O)CNC(=O)[C@@H](N)CCC(=O)O)[C@@H](C)O)[C@@H](C)CC)C(=O)N[C@@H](C)C(=O)N[C@@H](CCSC)C(=O)N[C@@H](CC(=O)O)C(=O)N[C@@H](CCCCN)C(=O)N[C@H](C(=O)N[C@@H](Cc1c[nH]cn1)C(=O)N[C@@H](CCC(N)=O)C(=O)N[C@@H](CCC(N)=O)C(=O)N[C@@H](CC(=O)O)C(=O)N[C@@H](Cc1ccccc1)C(=O)N[C@H](C(=O)N[C@@H](CC(N)=O)C(=O)N[C@@H](Cc1c[nH]c2ccccc12)C(=O)N[C@@H](CC(C)C)C(=O)N[C@@H](CC(C)C)C(=O)N[C@@H](C)C(=O)N[C@@H](CCC(N)=O)C(=O)N[C@@H](CCCCN)C(N)=O)C(C)C)[C@@H](C)CC
B6: AT300 [hGIP(3-30)NH2[D9K]-C16diacid/9] (peptide)
peptide: EGTFISK(C16 diacid)YSIAMDKIHQQDFVNWLLAQK-NH2
modifications: N-terminus assumed
SMILES: CC[C@H](C)[C@H](NC(=O)[C@H](CO)NC(=O)[C@H](Cc1ccc(O)cc1)NC(=O)[C@H](CCCCNC(=O)CCCCCCCCCCCCCCC(=O)O)NC(=O)[C@H](CO)NC(=O)[C@@H](NC(=O)[C@H](Cc1ccccc1)NC(=O)[C@@H](NC(=O)CNC(=O)[C@@H](N)CCC(=O)O)[C@@H](C)O)[C@@H](C)CC)C(=O)N[C@@H](C)C(=O)N[C@@H](CCSC)C(=O)N[C@@H](CC(=O)O)C(=O)N[C@@H](CCCCN)C(=O)N[C@H](C(=O)N[C@@H](Cc1c[nH]cn1)C(=O)N[C@@H](CCC(N)=O)C(=O)N[C@@H](CCC(N)=O)C(=O)N[C@@H](CC(=O)O)C(=O)N[C@@H](Cc1ccccc1)C(=O)N[C@H](C(=O)N[C@@H](CC(N)=O)C(=O)N[C@@H](Cc1c[nH]c2ccccc12)C(=O)N[C@@H](CC(C)C)C(=O)N[C@@H](CC(C)C)C(=O)N[C@@H](C)C(=O)N[C@@H](CCC(N)=O)C(=O)N[C@@H](CCCCN)C(N)=O)C(C)C)[C@@H](C)CC
B7: AT302 [hGIP(3-30)NH2[S11K]-C16diacid/11] (peptide)
peptide: EGTFISDYK(C16 diacid)IAMDKIHQQDFVNWLLAQK-NH2
modifications: N-terminus assumed
SMILES: CC[C@H](C)[C@H](NC(=O)[C@H](CCCCNC(=O)CCCCCCCCCCCCCCC(=O)O)NC(=O)[C@H](Cc1ccc(O)cc1)NC(=O)[C@H](CC(=O)O)NC(=O)[C@H](CO)NC(=O)[C@@H](NC(=O)[C@H](Cc1ccccc1)NC(=O)[C@@H](NC(=O)CNC(=O)[C@@H](N)CCC(=O)O)[C@@H](C)O)[C@@H](C)CC)C(=O)N[C@@H](C)C(=O)N[C@@H](CCSC)C(=O)N[C@@H](CC(=O)O)C(=O)N[C@@H](CCCCN)C(=O)N[C@H](C(=O)N[C@@H](Cc1c[nH]cn1)C(=O)N[C@@H](CCC(N)=O)C(=O)N[C@@H](CCC(N)=O)C(=O)N[C@@H](CC(=O)O)C(=O)N[C@@H](Cc1ccccc1)C(=O)N[C@H](C(=O)N[C@@H](CC(N)=O)C(=O)N[C@@H](Cc1c[nH]c2ccccc12)C(=O)N[C@@H](CC(C)C)C(=O)N[C@@H](CC(C)C)C(=O)N[C@@H](C)C(=O)N[C@@H](CCC(N)=O)C(=O)N[C@@H](CCCCN)C(N)=O)C(C)C)[C@@H](C)CC

Target: T1, human GIP receptor
Experiment: cell-based or functional assay

Row | Binder | cAMP agonism, EC50 (log) [log M] | cAMP agonism, Emax [%] | cAMP agonism, nM (EC50) [nM] | cAMP antagonism, log (IC50) [log M] | cAMP antagonism, nM (IC50) [nM]
1 | B1 | -7.9 | 8.5 | 12 | -6.8 | 163
2 | B2 | – | – | – | -7.5 | 33
3 | B3 | – | – | – | -6.7 | 199
4 | B4 | -7.6 | 24.2 | 28 | -7 | 90
5 | B5 | -7.8 | 15.2 | 15 | -6.7 | 199
6 | B6 | – | – | – | -7.7 | 22
7 | B7 | – | – | – | -7.2 | 69
